Reference: article PMC10086132, “Riboflavin kinase and pyridoxine 5′-phosphate oxidase complex formation envisages transient interactions for FMN cofactor delivery” (Frontiers in Molecular Biosciences, 2023)
Blank lines part the entries; values can stand above or below the molecule they belong to.

Experiments:
[1] = biological target: T1, RFK (riboflavin kinase; hRFK when loaded with FMN:ADP:Mg2+) (Homo sapiens, UniProt Q969G6); assay: thermal unfolding followed by Trp and FMN fluorescence; assay type: binding; conditions: FMN bound together with ADP:Mg2+ (hRFK) versus ligand-free RFK; 20 mM PIPES pH 7.0
T1 construct: recombinant, purified in apo-form by a previously described procedure
T1 sequence (Q969G6 1-155): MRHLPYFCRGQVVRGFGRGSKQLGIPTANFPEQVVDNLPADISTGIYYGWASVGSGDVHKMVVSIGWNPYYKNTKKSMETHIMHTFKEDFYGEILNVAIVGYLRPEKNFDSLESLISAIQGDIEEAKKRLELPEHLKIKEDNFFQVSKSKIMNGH

[2] = biological target: T2, PNPOx (pyridoxine-5′-phosphate oxidase; aPNPOx for the apo-form) (Homo sapiens, UniProt Q9NVS9); assay: as above; assay type: binding; conditions: holo-form versus apo-form; 20 mM PIPES pH 7.0
T2 construct: gene PNPO; pET28a(+) in Escherichia coli, HisTrap-purified, tag removal not mentioned; homodimer; FMN removed for the apo-form
T2 sequence (Q9NVS9 1-261): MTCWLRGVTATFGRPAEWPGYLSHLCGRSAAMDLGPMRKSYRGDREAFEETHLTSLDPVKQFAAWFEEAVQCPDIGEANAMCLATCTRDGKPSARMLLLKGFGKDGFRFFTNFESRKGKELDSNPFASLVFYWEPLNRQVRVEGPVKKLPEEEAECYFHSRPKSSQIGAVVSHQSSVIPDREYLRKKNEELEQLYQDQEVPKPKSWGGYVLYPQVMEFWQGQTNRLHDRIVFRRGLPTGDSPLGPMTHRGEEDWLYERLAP

[3] = biological target: T2, PNPOx (pyridoxine-5′-phosphate oxidase; aPNPOx for the apo-form); assay: stopped-flow flavin fluorescence quenching; assay type: binding; conditions: faster of two association processes, 20 mM PIPES pH 7.0, 0.3 mM MgCl2, 25 °C
[4] = substrate: Cc1cc2nc3c(=O)[nH]c(=O)nc-3n(C[C@H](O)[C@H](O)[C@H](O)CO)c2cc1C; assay: purified protein; conditions: no aPNPOx, 400 µM ATP, 0.3 mM MgCl2, 20 mM PIPES pH 7.0, 25 °C
[5] = biological target: T3, RFK (Homo sapiens, UniProt Q969G6); assay: ITC
T3 chain: T1 sequence (Q969G6 1-155)

[6] = biological target: T3, RFK; assay: stopped-flow fluorescence

- increase of Tm [1]: ~ 32 °C
- k on1 ^FMN [3]: 340000 ± 20000 M⁻¹ s⁻¹
Molecule: Cc1cc2nc3c(=O)[nH]c(=O)nc-3n(C[C@H](O)[C@H](O)[C@H](O)COP(=O)(O)O)c2cc1C [FMN]
- increase of Tm [2]: Both proteins were considerably less stable in apo-forms regarding their respective holo-forms

- Kd [6]: ~1000 nM
- Kd [5]: 900 nM
B3: PNPOx (protein)
chain: T2 sequence (Q9NVS9 1-261)
modifications: apo-PNPOx homodimer; RFK loaded with FMN and ADP:Mg2+

The remaining lines, values behind:

B1: RFK (riboflavin kinase; hRFK when loaded with FMN:ADP:Mg2+) (Homo sapiens) (protein)
chain: T1 sequence (Q969G6 1-155)
- Km [4]: 2.2 ± 0.3 µM
- kcat [4]: 1 s⁻¹
- kcat/Km [4]: 450000 M⁻¹ s⁻¹

B2: PNPOx (protein)
chain: T2 sequence (Q9NVS9 1-261)
modifications: apo-PNPOx homodimer; ligand-free RFK
- Kd [5]: 14000 nM

B4: PNPOx (protein)
chain: T2 sequence (Q9NVS9 1-261)
modifications: holo-PNPOx homodimer with FMN; RFK loaded with FMN and ADP:Mg2+; first binding site
- Kd [5]: 130 nM
